Test results: article PMC3302164 (Science Signaling, 2010)

Target: HA-PP2cA, expressed in HEK 293 cells (UniProt P67775 1-309)
Experiment: co-IP

Chain of HA-PP2cA, expressed in HEK 293 cells (P67775 whole entry): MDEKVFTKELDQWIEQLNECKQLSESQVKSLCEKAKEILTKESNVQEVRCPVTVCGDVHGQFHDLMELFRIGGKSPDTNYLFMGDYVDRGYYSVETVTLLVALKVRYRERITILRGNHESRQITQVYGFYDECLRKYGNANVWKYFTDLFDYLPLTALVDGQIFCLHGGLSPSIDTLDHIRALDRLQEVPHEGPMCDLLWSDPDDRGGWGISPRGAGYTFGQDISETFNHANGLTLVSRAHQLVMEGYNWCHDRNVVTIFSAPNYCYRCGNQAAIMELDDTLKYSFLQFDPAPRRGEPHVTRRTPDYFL

extent of interaction relative to that with PP1α, after doxorubicin: ~53%
B1: FLAG-KAP1 (wild type), expressed in HEK 293 cells (natural protein, human, UniProt Q13263 1-835, looked up)
chain: MAASAAAASAAAASAASGSPGPGEGSAGGEKRSTAPSAAASASASAAASSPAGGGAEALELLEHCGVCRERLRPEREPRLLPCLHSACSACLGPAAPAAANSSGDGGAAGDGTVVDCPVCKQQCFSKDIVENYFMRDSGSKAATDAQDANQCCTSCEDNAPATSYCVECSEPLCETCVEAHQRVKYTKDHTVRSTGPAKSRDGERTVYCNVHKHEPLVLFCESCDTLTCRDCQLNAHKDHQYQFLEDAVRNQRKLLASLVKRLGDKHATLQKSTKEVRSSIRQVSDVQKRVQVDVKMAILQIMKELNKRGRVLVNDAQKVTEGQQERLERQHWTMTKIQKHQEHILRFASWALESDNNTALLLSKKLIYFQLHRALKMIVDPVEPHGEMKFQWDLNAWTKSAEAFGKIVAERPGTNSTGPAPMAPPRAPGPLSKQGSGSSQPMEVQEGYGFGSGDDPYSSAEPHVSGVKRSRSGEGEVSGLMRKVPRVSLERLDLDLTADSQPPVFKVFPGSTTEDYNLIVIERGAAAAATGQPGTAPAGTPGAPPLAGMAIVKEEETEAAIGAPPTATEGPETKPVLMALAEGPGAEGPRLASPSGSTSSGLEVVAPEGTSAPGGGPGTLDDSATICRVCQKPGDLVMCNQCEFCFHLDCHLPALQDVPGEEWSCSLCHVLPDLKEEDGSLSLDGADSTGVVAKLSPANQRKCERVLLALFCHEPCRPLHQLATDSTFSLDQPGGTLDLTLIRARLQEKLSPPYSSPQEFAQDVGRMFKQFNKLTEDKADVQSIIGLQRFFETRMNEAFGDTKFSAVLVEPPPMSLPGAGLSSQELSGGPGDGP
